Reference: FireProtDB (doi:10.1073/pnas.84.13.4441)

Details: Escherichia coli (strain K12), 25 °C, GdnHCl, CD, Potassium phosphate 20 mM, reversible: yes, whole UniProt chain shown

B1: Tryptophan synthase alpha chain wild type, P0A877 (protein)
chain: MERYESLFAQLKERKEGAFVPFVTLGDPGIEQSLKIIDTLIEAGADALELGIPFSDPLADGPTIQNATLRAFAAGVTPAQCFEMLALIRQKHPTIPIGLLMYANLVFNKGIDEFYAQCEKVGVDSVLVADVPVEESAPFRQAALRHNVAPIFICPPNADDDLLRQIASYGRGYTYLLSRAGVTGAENRAALPLNHLVAKLKEYNAAPPLQGFGISAPDQVKAAIDAGAAGAISGSAIVKIIEQHINEPEKMLAALKVFVQPMKAATRS
pH 7
  unfolding free energy: 18.2 kcal/mol
pH 9
  unfolding free energy: 18 kcal/mol
